B1: GST fusion protein containing the RING domain: GST fusion of XIAP amino acids 338–497 (RING domain) (protein, UniProt P98170 338-497, looked up, fragment)
chain: YINNIHLTHSLEECLVRTTEKTPSLTRRIDDTIFQNPMVQEAIRMGFSFKDIKKIMEEKIQISGSNYKSLEVLVADLVNAQKDSMQDESSQTSLQKEISTEEQLRRLQEEKLCKICMDRNIAIVFVPCGHLVTCKQCAEAVDKCPMCYTVITFKQKIFMS
modifications: GST fusion
B2: NAIP: neuronal apoptosis inhibitory protein, GST construct (protein, UniProt Q13075 1-1403, looked up)
Baculoviral IAP …: MATQQKASDERISQFDHNLLPELSALLGLDAVQLAKELEEEEQKERAKMQKGYNSQMRSEAKRLKTFVTYEPYSSWIPQEMAAAGFYFTGVKSGIQCFCCSLILFGAGLTRLPIEDHKRFHPDCGFLLNKDVGNIAKYDIRVKNLKSRLRGGKMRYQEEEARLASFRNWPFYVQGISPCVLSEAGFVFTGKQDTVQCFSCGGCLGNWEEGDDPWKEHAKWFPKCEFLRSKKSSEEITQYIQSYKGFVDITGEHFVNSWVQRELPMASAYCNDSIFAYEELRLDSFKDWPRESAVGVAALAKAGLFYTGIKDIVQCFSCGGCLEKWQEGDDPLDDHTRCFPNCPFLQNMKSSAEVTPDLQSRGELCELLETTSESNLEDSIAVGPIVPEMAQGEAQWFQEAKNLNEQLRAAYTSASFRHMSLLDISSDLATDHLLGCDLSIASKHISKPVQEPLVLPEVFGNLNSVMCVEGEAGSGKTVLLKKIAFLWASGCCPLLNRFQLVFYLSLSSTRPDEGLASIICDQLLEKEGSVTEMCVRNIIQQLKNQVLFLLDDYKEICSIPQVIGKLIQKNHLSRTCLLIAVRTNRARDIRRYLETILEIKAFPFYNTVCILRKLFSHNMTRLRKFMVYFGKNQSLQKIQKTPLFVAAICAHWFQYPFDPSFDDVAVFKSYMERLSLRNKATAEILKATVSSCGELALKGFFSCCFEFNDDDLAEAGVDEDEDLTMCLMSKFTAQRLRPFYRFLSPAFQEFLAGMRLIELLDSDRQEHQDLGLYHLKQINSPMMTVSAYNNFLNYVSSLPSTKAGPKIVSHLLHLVDNKESLENISENDDYLKHQPEISLQMQLLRGLWQICPQAYFSMVSEHLLVLALKTAYQSNTVAACSPFVLQFLQGRTLTLGALNLQYFFDHPESLSLLRSIHFPIRGNKTSPRAHFSVLETCFDKSQVPTIDQDYASAFEPMNEWERNLAEKEDNVKSYMDMQRRASPDLSTGYWKLSPKQYKIPCLEVDVNDIDVVGQDMLEILMTVFSASQRIELHLNHSRGFIESIRPALELSKASVTKCSISKLELSAAEQELLLTLPSLESLEVSGTIQSQDQIFPNLDKFLCLKELSVDLEGNINVFSVIPEEFPNFHHMEKLLIQISAEYDPSKLVKLIQNSPNLHVFHLKCNFFSDFGSLMTMLVSCKKLTEIKFSDSFFQAVPFVASLPNFISLKILNLEGQQFPDEETSEKFAYILGSLSNLEELILPTGDGIYRVAKLIIQQCQQLHCLRVLSFFKTLNDDSVVEIAKVAISGGFQKLENLKLSINHKITEEGYRNFFQALDNMPNLQELDISRHFTECIKAQATTVKSLSQCVLRLPRLIRLNMLSWLLDADDIALLNVMKERHPQSKYLTILQKWILPFSPIIQK
modifications: GST tag
B3: GST fusion protein containing only the three BIR domains of XIAP: GST fusion of XIAP amino acids 1–337 (three BIR domains) (protein, UniProt P98170 1-337, looked up, fragment)
chain: MTFNSFEGSKTCVPADINKEEEFVEEFNRLKTFANFPSGSPVSASTLARAGFLYTGEGDTVRCFSCHAAVDRWQYGDSAVGRHRKVSPNCRFINGFYLENSATQSTNSGIQNGQYKVENYLGSRDHFALDRPSETHADYLLRTGQVVDISDTIYPRNPAMYSEEARLKSFQNWPDYAHLTPRELASAGLYYTGIGDQVQCFCCGGKLKNWEPCDRAWSEHRRHFPNCFFVLGRNLNIRSESDAVSSDRNFPNSTNLPRNPSMADYEARIFTFGTWIYSVNKEQLARAGFYALGEGDKVKCFHCGGGLTDWKPSEDPWEQHAKWYPGCKYLLEQKGQE
modifications: GST fusion
B4: His6-S5a: recombinant control protein, His6-S5a proteasome subunit (protein, UniProt P55036 1-377, looked up)
26S proteasome non-ATPase …: MVLESTMVCVDNSEYMRNGDFLPTRLQAQQDAVNIVCHSKTRSNPENNVGLITLANDCEVLTTLTPDTGRILSKLHTVQPKGKITFCTGIRVAHLALKHRQGKNHKMRIIAFVGSPVEDNEKDLVKLAKRLKKEKVNVDIINFGEEEVNTEKLTAFVNTLNGKDGTGSHLVTVPPGPSLADALISSPILAGEGGAMLGLGASDFEFGVDPSADPELALALRVSMEEQRQRQEEEARRAAAASAAEAGIATTGTEDSDDALLKMTISQQEFGRTGLPDLSSMTEEEQIAYAMQMSLQGAEFGQAESADIDASSAMDTSEPAKEEDDYDVMQDPEFLQSVLENLPGVDPNNEAIRNAMGSLASQATKDGKKDKKEEDKK
modifications: His6 tag
notes: recombinant control protein, His6-S5a proteasome subunit

Tests used:
[1] = system: DEVD-pNA hydrolysis activity in 293 cell cytosolic extracts; test: Cytochrome c/dATP-induced caspase activation (DEVD hydrolysis) in 293 cell cytosolic extracts; type: biochemical, human; conditions: 293 extracts + cytochrome c/dATP; GST-XIAP 0.2 μM, GST controls 2 μM, His6-S5a 5 μM; untreated ≈0.01
Procedure: (§1) Cells were washed with ice cold buffer A (20 mM Hepes (pH 7.5), 10 mM KCl, 1.5 mM MgCl2, 1 mM EDTA, 1 mM DTT and 0.1 mM PMSF) and suspended in 1 vol buffer A, then incubated on ice for 20 min. 293 cells were disrupted by passage 15× through a 26 gauge needle and Jurkat T cells were disrupted by dounce homogenization in 2 ml using 15 strokes with a pestle B. Cell extracts (10–15 mg total protein/ml) were clarified by centrifugation at 16,000×g for 30 min, then the NaCl concentration was increased by 50 mM. Cytosolic fractions were used immediately or stored frozen at −80° C.
(§2) Caspase activity was assayed by release of either 7-amino-4-trifluoromethyl-coumarin (AFC) or p-nitroanilide (pNA) from benzylyoxycarbonyl-DEVD (SEQ ID NO: 2) or benzylyoxycarbonyl-YVAD (SEQ ID NO: 3) synthetic peptides using a Molecular Devices Spectromax 340 for AFC labeled peptides or Perkin/Elmer LS50B for pNA labeled peptides (see Example II; see, also, Zhou et al., supra, 1997). Cytosolic extracts from 293 cells or Jurkat T cells were used directly (negative control) or were treated with 1 μM cytochrome c and 1 mM dATP or with cytochrome c, dATP and 0.2 μM GST-XIAP. Additional control reactions were performed by substituting 2 μM GST-Bcl-2, GST-Bax, GST-NM23 or GST-CD40 cytosolic domain, or 5 μM His6-S5a protein for GST-XIAP. DEVD-pNA hydrolysis was measured at various times and multiple experiments were performed using several different GST-XIAP preparations.

[2] = system: DEVD-pNA hydrolysis activity in Jurkat T cell cytosolic extracts; test: Cytochrome c/dATP-induced caspase activation (DEVD-pNA hydrolysis) in Jurkat T cell cytosolic extracts; type: biochemical; conditions: for DEVD-pNA hydrolysis, ΔA405 after 15 min: untreated ≈0.02; for DEVD-pNA hydrolysis, ΔA405 after 20 min: untreated ≈0.025
Procedure: as §1, §2

[3] = target: T1, caspase-3 (Homo sapiens, UniProt P42574); test: Inhibition of purified recombinant caspase-3, DEVD substrate hydrolysis and progress curves; type: biochemical; conditions: DEVD-pNA hydrolysis
T1 construct: to produce the 17–20 kDa mature, fully processed large subunit of the active caspase-3 enzyme; a smaller, fully processed, subunit of about 11 kDa; His6; made in house; host or cells: E. coli BL21(DE3)pLysS
T1 sequence (P42574 29-175 limits assumed): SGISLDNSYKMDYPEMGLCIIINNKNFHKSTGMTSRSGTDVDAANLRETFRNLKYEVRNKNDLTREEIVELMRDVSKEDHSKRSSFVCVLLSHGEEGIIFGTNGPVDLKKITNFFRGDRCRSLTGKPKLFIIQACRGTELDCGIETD
T1 sequence (P42574 176-277 limits assumed): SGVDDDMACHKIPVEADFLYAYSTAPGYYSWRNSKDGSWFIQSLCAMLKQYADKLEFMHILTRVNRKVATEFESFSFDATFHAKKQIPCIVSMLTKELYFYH
Procedure: Purified recombinant caspase-1, caspase-3, caspase-6, caspase-7 or caspase-8 were incubated with DEVD-pNA, either alone or with a 10-fold to 50-fold molar excess of GST-XIAP ([…]) and substrate hydrolysis was measured. Purified active caspase concentrations ranged from 0.1 nM to 10 nM. XIAP concentration ranged from 0.1 nM to 500 nM. Assays were performed in caspase buffer (50 mM Tris, pH 7.4, 100 mM NaCl, 10% sucrose, 5–10 mM DTT, 1 mM EDTA and 0.1% CHAPS).
Equilibria were determined from progress curves when substrate hydrolysis reached a steady-state; slopes were calculated by curve fit analysis using the cricket graph program. Experiments were performed using purified recombinant caspase-3, caspase-6, or caspase-7. DEVD-AFC hydrolysis was measured using 0.1 nM caspase and a range of concentrations (0.2 to 12 μM) of recombinant XIAP (rXIAP). […] Average ratio velocities (vi/vo, where “vi” indicates presence of GST-XIAP and “vo” indicates absence of GST-XIAP) were determined.
Caspase activity was determined essentially as described in Example II, using the benzylyoxycarbonyl-DEVD-AFC (SEQ ID NO: 2) substrate and was assayed at 37° C. using the Perkin-Elmer LS50B fluorometric plate reader in the kinetic mode with excitation and emission wavelengths of 400 nm and 505 nm, respectively. […] Reactions were performed in caspase buffer (50 mM Hepes, 100 mM NaCl, 1 mM EDTA, 0.1% CHAPS, 10% sucrose, 5 mM DTT). The inhibition constant, Ki, was calculated as described (Zhou et al., supra, 1997). Immunoblot analysis was performed as described in Example I.B.3.

[4] = target: T2, caspase-7 (Homo sapiens, UniProt P55210); test: Inhibition of purified recombinant caspase-7, DEVD substrate hydrolysis and progress curves; type: biochemical; conditions: DEVD-pNA hydrolysis
T2 construct: Purified active caspase concentrations ranged from 0.1 nM to 10 nM; His6; made in house; host or cells: E. coli BL21(DE3)pLysS
T2 sequence (P55210 24-198 limits assumed): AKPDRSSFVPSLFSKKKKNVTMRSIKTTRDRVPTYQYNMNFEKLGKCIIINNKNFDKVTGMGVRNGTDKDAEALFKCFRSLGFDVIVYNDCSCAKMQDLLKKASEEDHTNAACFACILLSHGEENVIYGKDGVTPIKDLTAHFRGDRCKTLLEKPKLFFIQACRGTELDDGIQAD
T2 sequence (P55210 207-303 limits assumed): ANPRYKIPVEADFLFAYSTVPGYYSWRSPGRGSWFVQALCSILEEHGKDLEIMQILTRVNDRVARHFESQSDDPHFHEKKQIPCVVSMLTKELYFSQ
Procedure: Purified recombinant caspase-1, caspase-3, caspase-6, caspase-7 or caspase-8 were incubated with DEVD-pNA, either alone or with a 10-fold to 50-fold molar excess of GST-XIAP (20 μM) and substrate hydrolysis was measured. Purified active caspase concentrations ranged from 0.1 nM to 10 nM. XIAP concentration ranged from 0.1 nM to 500 nM. Assays were performed in caspase buffer (50 mM Tris, pH 7.4, 100 mM NaCl, 10% sucrose, 5–10 mM DTT, 1 mM EDTA and 0.1% CHAPS).

[5] = target: T1, caspase-3; test: GST pull-down binding to caspase-3; conditions: glutathione-Sepharose beads, immunoblot
Procedure: (§3) Following incubation at 4° C. for 60 min, the beads were removed by centrifugation and washed twice with 100 vol 50 mM Tris (pH 7.5), 150 mM KCl, 2 mM DTT and 0.025% Triton-X100, then subjected to SDS-PAGE and immunoblot assay (see Example I.B.3).

[6] = target: T2, caspase-7; test: GST pull-down binding to caspase-7; conditions: glutathione-Sepharose beads, immunoblot
Procedure: as §3

[7] = listed as GST-fusion containing the RING domain

Row | Molecule | DEVD-pNA hydrolysis, ΔA405 after 15 min [1] | DEVD-pNA hydrolysis, ΔA405 after 15 min [2] | DEVD-pNA hydrolysis, ΔA405 after 20 min [2] | inhibition of caspase-3 in vitro (in words) [3] | inhibition of caspase-7 in vitro (in words) [4] | further results
1 | GST-Bax: recombinant control protein, GST fusion of Bax [reference compound] | ≈ 0.1 | ≈ 0.09 | ≈ 0.1 | – | – | –
2 | B1 | – | – | – | had no effect | had no effect | inhibition of caspase-3 in vitro (in words) [3, 7]: no significant effect; inhibition of caspase-7 in vitro (in words) [4, 7]: no significant effect
3 | B2 | – | – | – | – | – | binding of caspase-3 (in words) [5]: bound; binding of caspase-7 (in words) [6]: bound
4 | B3 | – | – | – | potently inhibited | potently inhibited | –
5 | B4 | ≈ 0.1 | ≈ 0.09 | ≈ 0.1 | – | – | –
